Measured values from US20140348865A1, “[…] ON AN HIV-1 V1V2 SITE-OF-VULNERABILITY” (The United States of America, as represented by the …, priority 2011, published 2014).

Key:
[1] = molecular target: Env of HIV-1 strain 6405 (pseudovirus) (HIV-1)
[2] = molecular target: Env of HIV-1 strain A03349M1 (pseudovirus) (HIV-1)
[3] = molecular target: Env of HIV-1 strain X2088 (pseudovirus) (HIV-1)
[4] = molecular target: Env of HIV-1 strain JRFL (pseudovirus) (HIV-1)
[5] = molecular target: Env of HIV-1 strain QH0515 (pseudovirus) (HIV-1)
[6] = molecular target: Env of HIV-1 strain RHPA (pseudovirus) (HIV-1)
[7] = molecular target: Env of HIV-1 strain T251-18 (pseudovirus) (HIV-1)
[8] = molecular target: Env of HIV-1 strain 7165.18 (pseudovirus) (HIV-1)
[9] = molecular target: Env of HIV-1 strain CNE4 (pseudovirus) (HIV-1)
[10] = molecular target: Env of HIV-1 strain BG 1168 (pseudovirus) (HIV-1)

Substance: monoclonal antibody PG9
- neutralization IC50 [1]: > 50 µg/mL
- neutralization IC50 (UG024.2): 3.94 µg/mL
- neutralization IC50 (57128.vrc15): 0.104 µg/mL
- neutralization IC50 (ZM55.28a): 0.571 µg/mL
- neutralization IC50 [2]: > 50 µg/mL
- neutralization IC50 (3016.v5.c45): 0.286 µg/mL
- neutralization IC50 (ZM215.8): < 0.023 µg/mL
- neutralization IC50 (ZM53.12): 0.041 µg/mL
- neutralization IC50 (ZM214.15): > 50 µg/mL
- neutralization IC50 (SIVmac251.30.SG3): > 50 µg/mL
- neutralization IC50 (3326.V4.C3): < 0.023 µg/mL
- neutralization IC50 (ZM233.6): < 0.023 µg/mL
- neutralization IC50 (ZM197.7): 0.414 µg/mL
- neutralization IC50 (ZM249.1): 0.033 µg/mL
- neutralization IC50 (SVA.MLV): > 50 µg/mL
- neutralization IC50 (UG021.16): > 50 µg/mL
- neutralization IC50 (NKU3006.ec1): > 50 µg/mL
- neutralization IC50 (3817.v2.c59): 0.007 µg/mL
- neutralization IC50 (3337.V2.C6): > 50 µg/mL
- neutralization IC50 (231965.c1): 1.51 µg/mL
- neutralization IC50 [3]: > 50 µg/mL
- neutralization IC50 (TRJO.58): 0.246 µg/mL
- neutralization IC50 [4]: > 50 µg/mL
- neutralization IC50 (AC10.29): 0.078 µg/mL
- neutralization IC50 (YU2.DG): 3.69 µg/mL
- neutralization IC50 (BL01.DG): > 50 µg/mL
- neutralization IC50 (SS1196.01): 0.293 µg/mL
- neutralization IC50 [5]: > 50 µg/mL
- neutralization IC50 (TRO.11 (pseudovirus)): 41.5 µg/mL
- neutralization IC50 (MN.3): > 50 µg/mL
- neutralization IC50 (CNE14): > 50 µg/mL
- neutralization IC50 (CNE10): 0.243 µg/mL
- neutralization IC50 (HXB2.DG): 0.553 µg/mL
- neutralization IC50 (89.6.DG): > 50 µg/mL
- neutralization IC50 (T266-60): 24 µg/mL
- neutralization IC50 [6]: > 50 µg/mL
- neutralization IC50 (T253-11): 0.127 µg/mL
- neutralization IC50 (ADA.DG): 0.342 µg/mL
- neutralization IC50 [7]: > 50 µg/mL
- neutralization IC50 (T278-50): 0.913 µg/mL
- neutralization IC50 (QH0692.42 (pseudovirus)): > 50 µg/mL
- neutralization IC50 (T250-4): < 0.0006 µg/mL
- neutralization IC50 (DJ263.8): 0.1 µg/mL
- neutralization IC50 (T280-5): 0.379 µg/mL
- neutralization IC50 [8]: > 50 µg/mL
- neutralization IC50 (WITO.33): < 0.023 µg/mL
- neutralization IC50 (REJO.67): 0.005 µg/mL
- neutralization IC50 (THRO.18): 15 µg/mL
- neutralization IC50 (T33-7): < 0.023 µg/mL
- neutralization IC50 (CNE12): > 50 µg/mL
- neutralization IC50 (HO86.8): 0.014 µg/mL
- neutralization IC50 (HT593.1): 0.271 µg/mL
- neutralization IC50 (Bal.01): 0.052 µg/mL
- neutralization IC50 [9]: > 50 µg/mL
- neutralization IC50 (SF162.LS): > 50 µg/mL
- neutralization IC50 [10]: > 50 µg/mL
- neutralization IC50 (BaL.26): 0.034 µg/mL
- neutralization IC50 (T257-31): 0.02 µg/mL
- neutralization IC50 (T255-34): 0.015 µg/mL
- neutralization IC50 (PVO.04): 6.24 µg/mL
- neutralization IC50 (CAAN.A2): 13 µg/mL
- neutralization IC50 (SC422.8): 0.535 µg/mL
- neutralization IC50 (BX08_16): 0.024 µg/mL
- neutralization IC50 (BR07.DG): > 50 µg/mL
- neutralization IC50 (JR-CSF): 0.003 µg/mL
- neutralization IC80 (Q769.d22 (HIV-1)): 0.033 µg/mL
- neutralization IC80 (MB201.A1 (HIV-1)): 0.193 µg/mL
- neutralization IC80 (C2101.c1 (HIV-1)): 0.289 µg/mL
- neutralization IC80 (C4118.09 (HIV-1)): 0.205 µg/mL
- neutralization IC80 (3718.v3.c11 (HIV-1)): 0.202 µg/mL

Substance: monoclonal antibody PG16
- neutralization IC50 [1]: > 50 µg/mL
- neutralization IC50 (UG024.2): > 50 µg/mL
- neutralization IC50 (57128.vrc15): 0.162 µg/mL
- neutralization IC50 (ZM55.28a): > 50 µg/mL
- neutralization IC50 [2]: > 50 µg/mL
- neutralization IC50 (3016.v5.c45): > 50 µg/mL
- neutralization IC50 (ZM215.8): > 50 µg/mL
- neutralization IC50 (ZM53.12): < 0.023 µg/mL
- neutralization IC50 (ZM214.15): > 50 µg/mL
- neutralization IC50 (SIVmac251.30.SG3): > 50 µg/mL
- neutralization IC50 (3326.V4.C3): < 0.023 µg/mL
- neutralization IC50 (ZM233.6): < 0.023 µg/mL
- neutralization IC50 (ZM197.7): 0.65 µg/mL
- neutralization IC50 (ZM249.1): 0.073 µg/mL
- neutralization IC50 (SVA.MLV): > 50 µg/mL
- neutralization IC50 (UG021.16): > 50 µg/mL
- neutralization IC50 (NKU3006.ec1): > 50 µg/mL
- neutralization IC50 (3817.v2.c59): 0.006 µg/mL
- neutralization IC50 (3337.V2.C6): > 50 µg/mL
- neutralization IC50 (231965.c1): 4.72 µg/mL
- neutralization IC50 [3]: > 50 µg/mL
- neutralization IC50 (TRJO.58): 0.393 µg/mL
- neutralization IC50 [4]: > 50 µg/mL
- neutralization IC50 (AC10.29): < 0.023 µg/mL
- neutralization IC50 (YU2.DG): 0.041 µg/mL
- neutralization IC50 (BL01.DG): > 50 µg/mL
- neutralization IC50 (SS1196.01): 0.069 µg/mL
- neutralization IC50 [5]: > 50 µg/mL
- neutralization IC50 (TRO.11 (pseudovirus)): 4.86 µg/mL
- neutralization IC50 (MN.3): > 50 µg/mL
- neutralization IC50 (CNE14): > 50 µg/mL
- neutralization IC50 (CNE10): 9.17 µg/mL
- neutralization IC50 (HXB2.DG): > 50 µg/mL
- neutralization IC50 (89.6.DG): > 50 µg/mL
- neutralization IC50 (T266-60): > 50 µg/mL
- neutralization IC50 [6]: 1.32 µg/mL
- neutralization IC50 (T253-11): 4.44 µg/mL
- neutralization IC50 (ADA.DG): 0.023 µg/mL
- neutralization IC50 [7]: 10.5 µg/mL
- neutralization IC50 (T278-50): 1.13 µg/mL
- neutralization IC50 (QH0692.42 (pseudovirus)): > 50 µg/mL
- neutralization IC50 (T250-4): < 0.0006 µg/mL
- neutralization IC50 (DJ263.8): 0.048 µg/mL
- neutralization IC50 (T280-5): 0.233 µg/mL
- neutralization IC50 [8]: > 50 µg/mL
- neutralization IC50 (WITO.33): < 0.023 µg/mL
- neutralization IC50 (REJO.67): 0.005 µg/mL
- neutralization IC50 (THRO.18): 0.975 µg/mL
- neutralization IC50 (T33-7): < 0.023 µg/mL
- neutralization IC50 (CNE12): > 50 µg/mL
- neutralization IC50 (HO86.8): 0.001 µg/mL
- neutralization IC50 (HT593.1): 0.153 µg/mL
- neutralization IC50 (Bal.01): 8 µg/mL
- neutralization IC50 [9]: > 50 µg/mL
- neutralization IC50 (SF162.LS): > 50 µg/mL
- neutralization IC50 [10]: > 50 µg/mL
- neutralization IC50 (BaL.26): 0.136 µg/mL
- neutralization IC50 (T257-31): 0.003 µg/mL
- neutralization IC50 (T255-34): 0.005 µg/mL
- neutralization IC50 (PVO.04): 19.8 µg/mL
- neutralization IC50 (CAAN.A2): 7.43 µg/mL
- neutralization IC50 (SC422.8): 1.2 µg/mL
- neutralization IC50 (BX08_16): 0.062 µg/mL
- neutralization IC50 (BR07.DG): > 50 µg/mL
- neutralization IC50 (JR-CSF): 0.002 µg/mL
- neutralization IC80 (Q769.d22 (HIV-1)): 11 µg/mL
- neutralization IC80 (MB201.A1 (HIV-1)): 0.019 µg/mL
- neutralization IC80 (C2101.c1 (HIV-1)): 0.069 µg/mL
- neutralization IC80 (C4118.09 (HIV-1)): 0.24 µg/mL
- neutralization IC80 (3718.v3.c11 (HIV-1)): 0.102 µg/mL
